Test results reported in patent US20170081395A1 (LABRYS BIOLOGICS, published 2017).
Ends that are not written are not given here.

B1: human α-CGRP 1-36-COOH (peptide)
peptide: ACDTATCVTHRLAGLLSRSGGVVKNNFVPTNVGSKA-OH
modifications: ends and bridges not checked
notes: also called Peptide 1-36 (not amidated at the C-terminus)

target: T1, antibody G1 Fab fragment; assay: Biacore, 10 uM peptide with 50 nM G1 Fab over human α-CGRP on chip
T1 construct: purified on Ni-NTA (tag not described); also called antibody G1 Fabs
T1 sequence (VH, as listed by the source, chain 1 of 2): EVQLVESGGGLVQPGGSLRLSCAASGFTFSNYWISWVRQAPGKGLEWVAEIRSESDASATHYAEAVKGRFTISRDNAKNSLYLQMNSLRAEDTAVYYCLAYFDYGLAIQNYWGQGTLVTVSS
T1 sequence (VL, as listed by the source, chain 2 of 2): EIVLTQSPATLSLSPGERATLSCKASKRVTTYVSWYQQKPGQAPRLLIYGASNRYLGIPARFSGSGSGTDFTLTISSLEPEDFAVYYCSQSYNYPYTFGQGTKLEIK

% of binding blocked, 100%:
SGGVVKNNFVPTNVGSAAF-NH2 (also: N-terminal biotin when captured on the chip) [human α-CGRP K35A (19-37)]
SGGVVKNNFVPTNVGSEAF-NH2 (also: N-terminal biotin when captured on the chip) [human α-CGRP K35E (19-37)]
SGGVVKNNFVPTNVGSMAF-NH2 (also: N-terminal biotin when captured on the chip) [human α-CGRP K35M (19-37)]
SGGVVKNNFVATNVGSKAF-NH2 [human α-CGRP P29A (19-37)]
SCNTATCVTHRLAGLLSRSGGVVKDNFVPTNVGSEAF-NH2 (ends and bridges not checked; also: N-terminal biotin when captured on the chip, also called rat α (1-37); α-rat) [rat α-CGRP (1-37)]

% of binding blocked, ~40%:
B1
